pKd: −log10 of the molar value.
Target: His-SUMO-FGF23 (N-terminal domain of human FGF23, wild type) (human) (UniProt Q9GZV9)
Experiment: ELISA

Chain of His-SUMO-FGF23 (N-terminal domain of human FGF23, wild type) (human) (Q9GZV9 25-204): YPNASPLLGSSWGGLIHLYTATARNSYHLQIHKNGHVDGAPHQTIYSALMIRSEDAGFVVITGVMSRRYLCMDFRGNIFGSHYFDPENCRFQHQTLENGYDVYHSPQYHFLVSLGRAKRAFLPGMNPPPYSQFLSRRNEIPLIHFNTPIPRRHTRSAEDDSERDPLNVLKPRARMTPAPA

pKd | Substance
9.15 | Burosumab VL:S52D
9.14 | Burosumab VL:S67Y
9.07 | Burosumab VL:T69D
